Assay results taken from the supplement of paper PMC10724198.
± gives the standard deviation of the averaged measurements.

Test system: Saccharomyces cerevisiae
Test: protein stability index of tFT-peptide fusion (C-terminal peptide) (PSI (0-1 scale)); higher = more stable (slower turnover)
Details: temperature: 30 C
Method: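 MPS profiling in S. cerevisiae of the yeast C-terminome library: the last 12 aa of each annotated ORF are fused to the C-terminus of a sfGFP-mCherry timer, after a GGGS linker. Cells are FACS-sorted into 8 mCherry/sfGFP bins and deep-sequenced. PSI runs from 0 (unstable) to 1 (stable); wild type and das1Δ backgrounds, two technical replicates each.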

[1] = genetic background: das1 deletion

Sequence | protein stability index [1] | protein stability index (genetic background: wild type)
GNSGGSNNSSWW [DED1 C-terminal 12 aa] | 0.71484 ± 0.00065 | 0.697 ± 0.02
KDFQVNKEIKPY [SIR4 C-terminal 12 aa] | 0.713 ± 0.052 | 0.7378 ± 0.00099
KADIACAGKQLI [YHL042W C-terminal 12 aa] | 0.676 ± 0.0096 | 0.698 ± 0.0097
GDYTVKQPEATK [AIM9 C-terminal 12 aa] | 0.703 ± 0.013 | 0.672 ± 0.029
MVSSLRNANHIF [BCS1 C-terminal 12 aa] | 0.712 ± 0.028 | 0.681 ± 0.025
LLSVHMYSSSLL [YNL019C C-terminal 12 aa] | 0.687 ± 0.011 | 0.671 ± 0.018
YDYNSKNSRGFY [DEF1 C-terminal 12 aa] | 0.6999 ± 0.0051 | 0.676 ± 0.033
FRTDEVYAAWRD [KAE1 C-terminal 12 aa] | 0.6891 ± 0.0051 | 0.6814 ± 0.0024
EIVGRYVVETSK [ADH5 C-terminal 12 aa] | 0.678 ± 0.028 | 0.6821 ± 0.0047
SRQFEQNLQIND [SLF1 C-terminal 12 aa] | 0.7394 ± 0.0052 | 0.676 ± 0.013
VLNFFKRRSMRV [KIN4 C-terminal 12 aa] | 0.625 ± 0.013 | 0.634 ± 0.084
ANCNTADCLEDH [COT1 C-terminal 12 aa] | 0.6866 ± 0.0051 | 0.708 ± 0.012
EQNAALGQGLGR [TIM9 C-terminal 12 aa] | 0.70792 ± 0.00034 | 0.692 ± 0.0086
TLNFEEARKEYV [YDR509W C-terminal 12 aa] | 0.713 ± 0.016 | 0.728 ± 0.035
VLSVISAVFGLI [PLB1 C-terminal 12 aa] | 0.674 ± 0.016 | 0.672 ± 0.045
DEELHPLSDEGM [DPP1 C-terminal 12 aa] | 0.691 ± 0.011 | 0.726 ± 0.061
LLIPRRILTLDL [PDL32 C-terminal 12 aa] | 0.602 ± 0.001 | 0.605 ± 0.036
KADNWKCKIQSA [GDA1 C-terminal 12 aa] | 0.69 ± 0.018 | 0.641 ± 0.011
DEDDGMIIGSLW [AEP2 C-terminal 12 aa] | 0.7004 ± 0.0057 | 0.708 ± 0.013
LSLRTKNTENKE [YGL159W C-terminal 12 aa] | 0.716 ± 0.038 | 0.688 ± 0.033
LDKELTDGCKQQ [PEX19 C-terminal 12 aa] | 0.7031 ± 0.005 | 0.684 ± 0.012

Sequence | protein stability index [1] | protein stability index (genetic background: wild type)
HELSKDFSNLGI [NAM7 C-terminal 12 aa] | 0.7008 ± 0.00089 | 0.683 ± 0.038
SGKFNGKKKSRR [FAF1 C-terminal 12 aa] | 0.693 ± 0.029 | 0.666 ± 0.018
SPIQLKDLESQI [SYS1 C-terminal 12 aa] | 0.677 ± 0.019 | 0.717 ± 0.0082
YKASGSYLEKYF [YPK3 C-terminal 12 aa] | 0.7123 ± 0.0023 | 0.6863 ± 0.00092
KPPKNKYKVVRR [SEC65 C-terminal 12 aa] | 0.714 ± 0.03 | 0.681 ± 0.0014
EVLEVAEKFKEE [DOT5 C-terminal 12 aa] | 0.696 ± 0.011 | 0.683 ± 0.018
SIICIETNKAIR [HPM1 C-terminal 12 aa] | 0.705 ± 0.016 | 0.757 ± 0.099
DCGWVSDAYKNH [LCL2 C-terminal 12 aa] | 0.735 ± 0.019 | 0.724 ± 0.043
RARPRTANRQHM [CCT2 C-terminal 12 aa] | 0.68332 ± 0.0002 | 0.6991 ± 0.005
AILREVQFEVFR [NTA1 C-terminal 12 aa] | 0.699 ± 0.019 | 0.7068 ± 0.00076
KDGDVVYDNGFM [CHS7 C-terminal 12 aa] | 0.7085 ± 0.007 | 0.692 ± 0.01
KGLFWDPACVIA [MFA2 C-terminal 12 aa] | 0.731 ± 0.022 | 0.728 ± 0.029
QIDKYMDLFTEG [PDH1 C-terminal 12 aa] | 0.7253 ± 0.0065 | 0.7354 ± 0.0063
SIIFLLLSYLLF [SAG1 C-terminal 12 aa] | 0.392 ± 0.042 | 0.381 ± 0.0067
QLENKLEILKQK [SPC19 C-terminal 12 aa] | 0.699 ± 0.052 | 0.7259 ± 0.0072
LGGLLTVLIWFL [KRE1 C-terminal 12 aa] | 0.335 ± 0.004 | 0.332 ± 0.014
EVDIDSLLAKLN [RLP7 C-terminal 12 aa] | 0.7114 ± 0.0065 | 0.407 ± 0.023
RLGDVLRVCCPS [YFL065C C-terminal 12 aa] | 0.627 ± 0.0072 | 0.668 ± 0.0092
DSSKYSLGNNSS [SUR1 C-terminal 12 aa] | 0.713 ± 0.025 | 0.686 ± 0.016
EQLEQDDGRKGG [LSM12 C-terminal 12 aa] | 0.682 ± 0.024 | 0.669 ± 0.023
